In assay [1] the target is T1, 可溶性ヒトgp130受容体 (soluble human gp130 receptor, extracellular region with six histidines, made in CHO DG44 cells) (human, UniProt P40189 23-619).
T1 construct: The stated range 1-619 begins at Met 1 and so holds the native signal peptide; also called 可溶性ヒトgp130受容体タンパク質; ヒトgp130受容体
T1 sequence: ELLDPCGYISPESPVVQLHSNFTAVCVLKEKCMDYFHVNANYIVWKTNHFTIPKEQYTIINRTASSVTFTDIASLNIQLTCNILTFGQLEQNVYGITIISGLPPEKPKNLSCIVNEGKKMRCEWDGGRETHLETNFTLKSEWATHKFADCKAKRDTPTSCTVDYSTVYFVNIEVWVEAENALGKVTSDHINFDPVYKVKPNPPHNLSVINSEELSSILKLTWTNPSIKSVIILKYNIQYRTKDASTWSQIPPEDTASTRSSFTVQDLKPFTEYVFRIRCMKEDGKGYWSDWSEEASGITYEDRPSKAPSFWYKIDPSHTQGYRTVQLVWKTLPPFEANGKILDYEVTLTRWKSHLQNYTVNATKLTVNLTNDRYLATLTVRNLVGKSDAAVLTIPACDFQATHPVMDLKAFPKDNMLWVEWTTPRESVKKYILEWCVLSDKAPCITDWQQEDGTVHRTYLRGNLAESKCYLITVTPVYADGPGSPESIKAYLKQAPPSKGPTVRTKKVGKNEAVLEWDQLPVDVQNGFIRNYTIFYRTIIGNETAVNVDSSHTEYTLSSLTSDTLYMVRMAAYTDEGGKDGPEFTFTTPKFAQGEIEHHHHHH
The experiment in a line: ELISA, soluble gp130 coated on the plate, hybridoma supernatant, anti-mouse HRP. (An ELISA detects its analyte on a solid surface through an enzyme-linked reagent.)

Assay [2] deals with T1, 可溶性ヒトgp130受容体 (soluble human gp130 …). The experiment in a line: SPR (Biacore T200), gp130 amine-coupled on CM5 (352 RU), Fab as analyte, 25 C. (Surface plasmon resonance follows binding to a sensor surface in real time, without labels.)
The target is the same in assay [3]. Description: SPR (Biacore T200), gp130 amine-coupled on CM5 (235.2 RU), Fab as analyte.
Assay [4] has the same target. The experiment in a line: SPR (Biacore T200), gp130 amine-coupled on CM5 (376 RU), full-length IgG as analyte.

One may read the Kd as the constant that tells how readily two partners part at equilibrium. The low end stands for higher affinity, the high end for lower affinity. A word on the koff: it is the rate constant with which the complex falls apart. In general, kon refers to the second-order rate constant of association. Low values mean slower complex formation, high ones faster complex formation.

B1: 抗体A (mouse anti-human gp130 receptor monoclonal antibody from hybridoma) (antibody, mouse IgG1, kappa, V domains shown)
VH: EVLLQQSGPELVKPGASVKIPCKASGYTFTDYNMDWVKQSHGKSLEWIGDINSHSGGIIYNQKFKDKAILTVDKSSSTAYMELRSLTSEDTAVYYCARTYYVYGHFFDYWGQGTTLTVSS
VL: QSVLTQSPAFISASPGEKVTMTCNVSSSVTSMYWYQQKPGSSPKPWIYLTSNLASGVPPRFSGSGSGTSYSLTISSLEAEDAATYYCQQWSTNPLTFGAGTKLELKR
notes: also called マウス抗体A; antibody A
Regarding B1, in assay [1], the binding result was “binds”.

B2: 小型化マウス抗体A (Fab of mouse antibody A, from pUC-Fab-mAHmAL, E. coli) (Fab, V domains shown)
VH: EVLLQQSGPELVKPGASVKIPCKASGYTFTDYNMDWVKQSHGKSLEWIGDINSHSGGIIYNQKFKDKAILTVDKSSSTAYMELRSLTSEDTAVYYCARTYYVYGHFFDYWGQGTTLTVSS
VL: QSVLTQSPAFISASPGEKVTMTCNVSSSVTSMYWYQQKPGSSPKPWIYLTSNLASGVPPRFSGSGSGTSYSLTISSLEAEDAATYYCQQWSTNPLTFGAGTKLELKR
In assay [2], B2 had a Kd of 598 pM, a koff of 8.42e-05 s⁻¹ and a kon of 141000 M⁻¹ s⁻¹.

B3: hAH1mAL (Fab: humanized VH hAH1 with the mouse L chain of antibody A, from pUC-Fab-hAH1mAL) (Fab, V domains shown)
VH: QVQLQQPGAELVQPGTSVRLSCKASGYTFTDYNMDWVKQRPGQGLEWIGDINSHSGGIIYNQKFKDKATLTVDKSSSTAYMQLSSLTSEDSAVYYCARTYYVYGHFFDYWGQGTLVTVSA
VL: QSVLTQSPAFISASPGEKVTMTCNVSSSVTSMYWYQQKPGSSPKPWIYLTSNLASGVPPRFSGSGSGTSYSLTISSLEAEDAATYYCQQWSTNPLTFGAGTKLELKR
In assay [2], B3 returned a Kd of 460 pM, a koff of 8.21e-05 s⁻¹ and an on-rate (kon) of 178000 M⁻¹ s⁻¹.

B4: hAH1hAL1 (humanized Fab, VH SEQ ID NO 25, VL SEQ ID NO 76, from pUC-Fab-hAH1hAL1) (Fab, V domains shown)
VH: QVQLQQPGAELVQPGTSVRLSCKASGYTFTDYNMDWVKQRPGQGLEWIGDINSHSGGIIYNQKFKDKATLTVDKSSSTAYMQLSSLTSEDSAVYYCARTYYVYGHFFDYWGQGTLVTVSA
VL: DIQMTQSPSSLSASVGDRVTITCNVSSSVTSMYWYQQKQGKSPQLLVYLTSNLASGVPARFSGSGSGTEFTLTISSLQPDDFATYYCQQWSTNPLTFGAGTKLDLKR
In assay [3], B4 displayed a Kd of 218 pM, a koff of 5.6e-05 s⁻¹ and a kon of 257000 M⁻¹ s⁻¹.

B5: hAH1hAL2 (humanized Fab, VH SEQ ID NO 25, VL SEQ ID NO 77, from pUC-Fab-hAH1hAL2) (Fab, V domains shown)
VH: QVQLQQPGAELVQPGTSVRLSCKASGYTFTDYNMDWVKQRPGQGLEWIGDINSHSGGIIYNQKFKDKATLTVDKSSSTAYMQLSSLTSEDSAVYYCARTYYVYGHFFDYWGQGTLVTVSA
VL: ELVLTQSPGTLSLSAGERATLSCNVSSSVTSMYWYQQKPGKAPKLLIYLTSNLASGVPSRFSGSGSGTQFSLKINNLQPEDFGSYYCQQWSTNPLTFGAGTKLDLKR
In assay [3], B5 came in with a Kd of 594 pM, a koff of 7.05e-05 s⁻¹ and a kon of 119000 M⁻¹ s⁻¹.

B6: hAH1hAL3 (full-length humanized anti-gp130 receptor antibody, H chain hAH1, L chain hAL3, made in CHO DG44 cells) (antibody, human IgG1, kappa, V domains shown)
VH: QVQLQQPGAELVQPGTSVRLSCKASGYTFTDYNMDWVKQRPGQGLEWIGDINSHSGGIIYNQKFKDKATLTVDKSSSTAYMQLSSLTSEDSAVYYCARTYYVYGHFFDYWGQGTLVTVSA
VL: DIQMTQSPSSLSASVGDRVTITCNVSSSVTSMYWFQQRPGQAPKVLIYLTSNLASGVPSRFSGSGSGTEFTLTISSLQPDDFATYYCQQWSTNPLTFGQGTKVEIKR
notes: Human IgG1, kappa constant regions; also called ヒト化抗体hAH1hAL3
In assay [4], B6 had a Kd of 585 pM, a koff of 7.25e-05 s⁻¹ and a kon of 124000 M⁻¹ s⁻¹.

The record behind these values is JP2019147786A (dated 2019).
